The target in one experiment is T1, drHerA (Deinococcus radiodurans, UniProt Q9RW32).
T1 construct: gene DR_0837; full length, residues 1-618, N-terminal 6xHis tag (pET28a), expressed in E. coli Rosetta (DE3); homohexamer; ADP site between two protomers
T1 sequence (Q9RW32 1-618): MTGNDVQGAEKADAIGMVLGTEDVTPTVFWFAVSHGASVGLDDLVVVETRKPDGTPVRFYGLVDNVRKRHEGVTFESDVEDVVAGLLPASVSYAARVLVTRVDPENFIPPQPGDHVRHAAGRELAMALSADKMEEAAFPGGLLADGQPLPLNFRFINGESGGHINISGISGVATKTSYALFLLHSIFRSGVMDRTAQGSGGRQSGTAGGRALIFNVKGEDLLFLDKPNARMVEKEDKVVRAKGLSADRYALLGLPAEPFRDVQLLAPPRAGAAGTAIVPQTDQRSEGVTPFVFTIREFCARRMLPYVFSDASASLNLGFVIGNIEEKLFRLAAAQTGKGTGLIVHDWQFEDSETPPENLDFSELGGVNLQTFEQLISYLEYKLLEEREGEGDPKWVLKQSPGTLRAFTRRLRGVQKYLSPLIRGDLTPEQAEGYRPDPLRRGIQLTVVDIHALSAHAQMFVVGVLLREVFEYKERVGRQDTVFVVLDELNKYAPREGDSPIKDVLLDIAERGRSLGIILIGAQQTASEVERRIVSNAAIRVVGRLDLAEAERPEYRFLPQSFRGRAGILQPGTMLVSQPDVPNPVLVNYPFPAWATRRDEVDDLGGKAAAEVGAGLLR
As to the kind of experiment: X-ray crystal structure, […] Å. The class given is binding. As to conditions: Mg2+; crystals set up with ADP, NaF and AlCl3, only ADP seen; one ADP per protomer.

For experiment [1], the target named is Deinococcus radiodurans HerA (Deinococcus radiodurans). Kind of experiment: cryo-EM structure; purified drNurA-HerA complex, low-resolution (~9 Å) map, 200 kV, 3D refinement with C2 symmetry; drHerA crystal structure and an AlphaFold2 model of drNurA fitted and refined into the map.
Experiment [2] shares this target. As to the kind of experiment: crystal structure; drHerA without any ligand, space group P3(1)21, 3.0 Å; sitting drop at 289 K, 0.1 M HEPES (pH 7.5), 1.3 M NaAc.
Experiment [3] shares this target. Kind of experiment: cryo-EM structure; 2D class averages (top views) of purified drHerA alone, with ADP, with ADPNP or with 46-bp dsDNA; 200 kV Tecnai F20.
For experiment [4] the target is unchanged. As to the kind of experiment: crystal structure; drHerA with ADP bound (set up with ADP•AlF3, MgAc), space group P2(1)2(1)2(1), 3.4 Å; 0.2 M MgCl2, 0.1 M HEPES (pH 7.8), 14% PEG 3350.
The target of experiment [5] is Deinococcus radiodurans NurA (Deinococcus radiodurans). Kind of experiment: cryo-EM structure; purified drNurA-HerA complex, low-resolution (~9 Å) map, 200 kV, 3D refinement with C2 symmetry; drHerA crystal structure and an AlphaFold2 model of drNurA fitted and refined into the map.
Experiment [6] deals with HerA with point mutations D78A, E80A, and D81A (Deinococcus radiodurans).
In experiment [7] the target is Deinococcus radiodurans HerA (Deinococcus radiodurans).

`Nc1ncnc2c1ncn2[C@@H]1O[C@H](COP(=O)(O)OP(=O)(O)O)[C@@H](O)[C@H]1O` [ADP]: on drHerA, the “X-ray crystal structure, 3.4 Å” value was “each protomer is bound to one ADP molecule”.
Deinococcus radiodurans HerA (enzyme): the stoichiometry N in experiment [1], in experiment [2], in experiment [3] and in experiment [4] was 6 in each case.
In turn, Deinococcus radiodurans NurA (enzyme) showed a stoichiometry N in experiment [5] of 2. In experiment [6], this compound displayed an ATPase activity of HerA^m with drNurA, Mn2+, ds DNA (ATPase mol/protein/min) of 0.38; an ATPase activity of HerA^m with drNurA, Mn2+, no DNA (ATPase mol/protein/min) of under 0.01; an ATPase activity of HerA^m with drNurA, Mn2+, ss DNA (ATPase mol/protein/min) of 6.01. Besides, in experiment [7], the ATPase activity of drHerA with drNurA, Mn2+, ds DNA (ATPase mol/protein/min) stood at 4.18; the ATPase activity of drHerA with drNurA, Mn2+, no DNA (ATPase mol/protein/min) turned out to be 0.42; the ATPase activity of drHerA with drNurA, Mn2+, ss DNA (ATPase mol/protein/min) stood at 28.6.

What is called stoichiometry N is a count of units in the complex or per binding partner.

The values are drawn from PMC9960219, “Structural and DNA end resection study of the bacterial NurA-HerA complex” (BMC Biology, 2023).
